Results from publication PMC8496864.

Legend:
[1] = target: CwlDΔ25-His6 (soluble domain of C. difficile CwlD amidase, His-tagged) (Clostridioides difficile); assay: SEC; Superdex 200 Increase 10/300 GL; 200 mM NaCl, 10 mM Tris HCl pH 7.5, 5% glycerol, 1 mM DTT; fractions on SDS-PAGE with Coomassie; complexes also run after 1 h at 4°C with fivefold excess ZnCl2 or 1 mM EDTA
[2] = target: FLAG-tagged CwlD_(E199A) (Clostridioides difficile); assay: co-IP; lysates of C. difficile sporulating for 22 h; FLAG IP buffer (50 mM Tris pH 7.5, 150 mM NaCl) with 0.1% NP-40; anti-FLAG magnetic resin, 1 h at room temperature; eluted with FLAG peptide; GerS detected by anti-GerS blot
[3] = target: FLAG-tagged CwlD_(H49A) (Clostridioides difficile); assay: as above
[4] = target: FLAG-tagged CwlD_(R169D) (Clostridioides difficile); assay: as above
[5] = target: CwlDΔ25-His6 (soluble domain of C. difficile CwlD amidase, His-tagged) (Clostridioides difficile); assay: pull-down; co-affinity purification: His-tagged CwlD and untagged GerS co-produced in E. coli, captured on Ni-NTA agarose (500 mM NaCl, Tris pH 7.5, 15 mM imidazole, 10% glycerol, 2 mM ß-mercaptoethanol), eluted with 200 mM imidazole, Coomassie staining
[6] = target: GerSΔ22 (soluble domain of C. difficile GerS lipoprotein, untagged) (Clostridioides difficile); assay: crystal structure; SEC-purified CwlD:GerS complex; hanging drop at 18°C, 50 mM BisTris pH 7.5, PEG 3350 12–18%, 5% glycerol, 0.25 M ammonium nitrate; 2.4 Å
[7] = target: CwlD_(E199A)-His6 (Clostridioides difficile); assay: SEC; Superdex 200 Increase 10/300 GL; 200 mM NaCl, 10 mM Tris HCl pH 7.5, 5% glycerol, 1 mM DTT; fractions on SDS-PAGE with Coomassie; complexes also run after 1 h at 4°C with fivefold excess ZnCl2 or 1 mM EDTA
[8] = target: CwlD_(E65A)-His6 (Clostridioides difficile); assay: as above
[9] = target: CwlD_(H49A)-His6 (Clostridioides difficile); assay: as above
[10] = target: CwlD_(R169D)-His6 (Clostridioides difficile); assay: pull-down; co-affinity purification: His-tagged CwlD and untagged GerS co-produced in E. coli, captured on Ni-NTA agarose (500 mM NaCl, Tris pH 7.5, 15 mM imidazole, 10% glycerol, 2 mM ß-mercaptoethanol), eluted with 200 mM imidazole, Coomassie staining
[11] = target: CwlD_(R169Q)-His6 (Clostridioides difficile); assay: as above
[12] = target: GerSΔ22-His6 (Clostridioides difficile); assay: dynamic light scattering; DynaPro Protein Solutions DLS instrument; purified GerS, CwlD and SEC-purified CwlD:GerS complex
[13] = target: GerSΔ22-His6 (Clostridioides difficile); assay: SEC; Superdex 200 Increase 10/300 GL; 200 mM NaCl, 10 mM Tris HCl pH 7.5, 5% glycerol, 1 mM DTT; fractions on SDS-PAGE with Coomassie; complexes also run after 1 h at 4°C with fivefold excess ZnCl2 or 1 mM EDTA

CwlDΔ25-His6 (soluble domain of C. difficile CwlD amidase, His-tagged) (domain or fragment)
stoichiometry N [1]: 2

GerS, cleaved form (GerS-c), untagged, in sporulating C. difficile (natural protein)
decrease of GerS pulled down relative to wild-type FLAG-tagged CwlD [2]: 40% | fold reduction of GerS pulled down relative to wild-type FLAG-tagged CwlD [3]: 5 fold | fold reduction of GerS pulled down relative to wild-type FLAG-tagged CwlD [4]: 5 fold

GerS_(D106A), untagged (domain or fragment)
reduction of GerS co-purification relative to the wild-type complex [5]: 90%

GerS_(D106R), untagged (domain or fragment)
reduction of GerS co-purification relative to the wild-type complex [5]: 90%

GerSΔ22 (soluble domain of C. difficile GerS lipoprotein, untagged) (domain or fragment)
stoichiometry N [6]: 2 | stoichiometry N [7]: 1 | stoichiometry N [8]: 1 | stoichiometry N [9]: 1 | stoichiometry N [1]: 1 | reduction of GerS co-purification relative to the wild-type complex [10]: 90% | reduction of GerS co-purification relative to the wild-type complex [11]: 90%

GerSΔ22-His6 (domain or fragment)
stoichiometry N [12]: 2 | stoichiometry N [13]: 2
